The values that follow come from publication PMC5310709.

Like-named read-outs stand apart in the source and are kept apart here.

Common to all, as to test: cross-linking
Assay [1] addresses Z protein with N-epsilon-fluoroacetyllysine at residue 24, fused to maltose binding protein.
Assay [2] shares this target. The source holds these as a separate data set.
Assay [3] addresses Z protein with N-epsilon-fluoroacetyllysine at residue 6, fused to maltose binding protein.
Assay [4] shares this target. The source holds these as a separate data set.
For assay [5], the target named is Z protein with Cys at residue 6, fused to maltose binding protein.
For assay [6] the target is unchanged. This is another data set of the same source.

“Zspa Affibody (Afb) with Cys at position 7 (designed binder)”: the results for the crosslinking yield in assay [1] and in assay [2] were 12% and 34%, respectively.

With “Zspa Affibody (Afb) with Cys at position 36 (designed binder)”, the crosslinking yield stood at 24% in assay [3] and 64% in assay [4].

In assay [5], “Zspa Affibody (Afb) with N-epsilon-fluoroacetyllysine at position 36 (designed binder)” displayed a crosslinking yield of 33%. Moreover, the crosslinking efficiency in assay [6] was 88%.
